The numbers were not newly measured in publication PMC2488365, which cites them from elsewhere.

This data set has as its target penton base (Human adenovirus 2) (UniProt P03276).
Sequence of UniProt P03276 (P03276 whole entry): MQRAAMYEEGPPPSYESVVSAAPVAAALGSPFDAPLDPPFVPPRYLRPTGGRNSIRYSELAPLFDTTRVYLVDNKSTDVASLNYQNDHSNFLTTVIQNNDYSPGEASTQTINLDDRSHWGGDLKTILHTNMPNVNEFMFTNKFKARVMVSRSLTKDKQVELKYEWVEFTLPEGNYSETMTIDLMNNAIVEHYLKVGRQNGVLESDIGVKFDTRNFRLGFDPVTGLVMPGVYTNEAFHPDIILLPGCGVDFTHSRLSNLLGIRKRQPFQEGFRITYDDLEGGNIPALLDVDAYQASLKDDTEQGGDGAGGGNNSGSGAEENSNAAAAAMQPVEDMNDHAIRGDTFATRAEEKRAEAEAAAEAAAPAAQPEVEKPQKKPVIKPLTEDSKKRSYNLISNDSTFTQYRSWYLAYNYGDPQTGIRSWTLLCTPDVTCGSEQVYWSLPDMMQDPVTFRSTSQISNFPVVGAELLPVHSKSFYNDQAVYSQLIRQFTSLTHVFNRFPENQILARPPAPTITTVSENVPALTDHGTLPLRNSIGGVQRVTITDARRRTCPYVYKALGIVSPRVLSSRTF

fiber (from UniProt P03275): the Kd (commonly the constant that tells how readily two partners part at equilibrium) is 0.2 µM.
